Results from publication PMC4546571 (Chemistry & biology, 2015).

Molecular target: the molecule itself
Assay: seeded fibril assembly followed by ThT fluorescence

GIHKQKEKSRLQGGVLVNEILNHMKRATQIPSYKKLIMY (peptide, UniProt P15309 248-286, looked up) [PAP248-286]: binds.
